# Data: the nanobody polyreactivity screen of Harvey et al. (2022)
# Experiment: yeast display, Sf9 membrane polyspecificity reagent, FACS + sequencing; frameworks hold sequencing errors
# Method in brief: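 Polyreactivity labels are assigned by the sorting gate from which each nanobody was recovered. The gates were low and high (top ~1%), set on anti-HA fluorescence for expression and streptavidin fluorescence for reagent binding. Before sorting, galactose-induced (36–48 hours) yeast display cells were stained for 1 hour at 4 °C with 10% biotinylated, detergent-solubilized Sf9 membrane reagent.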
row,Sequence,polyreactivity (PSR sort gate)
1,QVQLVESGGGLVQAGGSLRLSCAASGRIFPPNAMGWYRQAPGKERELVAAITGSGGSTYYADSVKGRFTITRDNAKNTVYLQKNSLKPADTAVYYCAVESLGRVSRGYDYWGQGTQVTVSS,low polyreactivity
2,QVQLVESGGGLVQAGGSLRLSCAASGRIFPPYAMGWYRQAPGKERELVAAISSSTTSTYYADSVKGRFTISRDNAKNTVYLQMNSLKPEDTGVYYCAAQPYRAAFPYSSRRHLQYEYWGQGTQVTVSS,low polyreactivity
3,QVQLVESGGGLVQAGGSLRLSCAASGRIFPPYAMGWYRQAPGKERELVATISYTGGSTYYADSVKGRFTISRDNAKNTVYLQMNRLKPEDTAVYYCNAEYYYWNREGDYWGQGTQVTVSS,low polyreactivity
4,QVQLVESGGGLVQAGGSLRLSCAASGRIFPPYDMGWYRQATGKEREFVAAIDWTGGSTYYADSVKGRFTISRDNAKNTVYLQMNSLKPEDTAVYYCNAEQSYRGVGWRYDYWGQGTQVTVSS,low polyreactivity
5,QVQLVESGGGLVQAGGSLRLSCAASGRIFPQYAMGWSRQAPGKERELVAGITSVGSTYYADSVKGRFTISRDNAKNTVYLQMNSLKPEDTAVYYCAAVPSRYVRANRRTYRYYYWGQGTQVTVSS,high polyreactivity
6,QVQLVESGGGLVQAGGSLRLSCAASGRIFPRNAMGWYRQAPGKERELVAAISSGGGGTYYADSVKGRFTISRDNAKNTVYLQMNSLKPEDTAVYYCNAAYTYVTAWYYYWGQGTQVTVSS,high polyreactivity
7,QVQLVESGGGLVQAGGSLRLSCAASGRIFPRNTMGRYRQAPGKERELVAGITSGGGTYYADSVKGRFTISRDNAKNTVYFQMNRLKPEDTAVFYCAARPWRSRYYGGLGRRFDYWGQGTQVTVSS,high polyreactivity
8,QVQLVESGGGLVQAGGSLRLSCAASGRIFPRYAMGWYRQAPGKERELVATISSGGSTYYADSVKGRFTISRDNAKNTVYLQMNSLKPEDTAVYYCAARKRPYTVINGMDYWGQGTQVTVSS,low polyreactivity
9,QVQLVESGGGLVQAGGSLRLSCAASGRIFPRYAMGWYRQAPGKERQLVAAITSGDSTHYADSVKGRFTISRDNAKNTVYLQMNSLKPEDTAVYYCAAKYPRYGRHAYGYWGQGTQVTVSS,high polyreactivity
10,QVQLVESGGGLVQAGGSLRLSCAASGRIFPSYAMGWYRQAPGKERELVAAISYSGASTYYADSVKGRFTISRDNAKNTVYLQMNSLKPEDTAVYYCYQLVEEDYWGLGTQVTVSS,low polyreactivity
11,QVQLVESGGGLVQAGGSLRLSCAASGRIFPTYAMGWYRQAPGKERELVAGITSGGRTNYADSVKGRFTISRDNAKNTVYLQMNSLKPEDTAVYYCAKRVWPRDQYGKRNPRMDYWGQGTQVTVSS,high polyreactivity
12,QVQLVESGGGLVQAGGSLRLSCAASGRIFPVNAMGWYRQAPGKEREFVARISRRGGSTYYADSVKGRFTISRDNAKNTVYLQMNSLKPEDTAVYYCAAVSSRYSYDYWGQGTQVTVSS,high polyreactivity
13,QVQLVESGGGLVQAGGSLRLSCAASGRIFPVYAMGWYRQAPGNERELVAAITSGVGSTYYADSVKGRFTISRDNAKNTVYLQMNSLKPEDTAVYYCAADSSYLTYWEYDYWGQGTQVTVSS,low polyreactivity
14,QVQLVESGGGLVQAGGSLRLSCAASGRIFPWNAMGWYRQAPGKDRELVAAISFSAGRTYYADSVKGRFTISRDNAKNTVYLQMNSLKPEDTAVYYCNARIGSPWVWTGIIGYEYWGQGTQVTVSS,low polyreactivity
15,QVQLVESGGGLVQAGGSLRLSCAASGRIFPWNAMGWYRQAPGKERDLVAAISFSAGRTYYADSVKGRFTISRDNAKNTVYLQMNSLKPEDTAVYYCNARIGSRWVWTGIIGYEYWGQGTQVTVSS,low polyreactivity
16,QVQLVESGGGLVQAGGSLRLSCAASGRIFPWYAMGWYRQAPGKEREVVAAIRWRGGGTYYADSVKGRFTISRDNAKNTVYLQMNSLKPEDTAVYYCAARRPANGMGYWGQGTQVTVSS,high polyreactivity

row,Sequence,polyreactivity (PSR sort gate)
1,QVQLVESGGGLVQAGGSLRLSCAASGRIFPYKDMGWSRQAHGKEMELVAGISYSGGSTYYADSVKGRFTISRDNAKNTVYLQMNSLKPEDTAVYYCARDYSRHKGDYWGQGTQVTVSS,low polyreactivity
2,QVQLVESGGGLVQAGGSLRLSCAASGRIFPYYAMGWYRQAPGKERELVAAITTRGGSTYYADSVKGRFTISRDNAKNTVYLQMNSLKPEDTAVYYCAAVTFGRMEYWGQGTQVTVSS,low polyreactivity
3,QVQLVESGGGLVQAGGSLRLSCAASGRIFPYYDMGWYREAPGKERELVAAITWNGGSTYYADSVKGRFTISRDNAKNTVYLQMNSLKPADTAVYYCAVEPYYYGEDYWGQGTQVTVSS,low polyreactivity
4,QVQLVESGGGLVQAGGSLRLSCAASGRIFPYYDMGWYRQAPGKERELVAAITWNGGSTYYADSVKGRFTISRDNAKNTVFLQMNSLKPEDSAVYYCAVEPYYYGEDYWGQGTQVTVSS,low polyreactivity
5,QVQLVESGGGLVQAGGSLRLSCAASGRIFQFYAMGWYRQAPGKERELVASISASGARTYYADSVKGRFTISRDNAKNTVYLQMNSLNPEDTAVYYCNVVYFDGNPEDYEYWGKGTQVTVSS,high polyreactivity
6,QVQLVESGGGLVQAGGSLRLSCAASGRIFQGNAMGWYRQAPGKERELVAAITTSGGSTYYADSVKGRFTISRDNAKNTVYLQMNSLKPEDTAVYYCNVDPRKRSYDYWGQGTQVTVSS,high polyreactivity
7,QVQLVESGGGLVQAGGSLRLSCAASGRIFQGNAMGWYRQAPRKERELVAAISWRGGRTYYADSVKGRFTISRAYAKNTVYLQMNSLKPEDTAVYYCAAKAYREDEGYWGQGTQVTVSS,high polyreactivity
8,QVQLVESGGGLVQAGGSLRLSCAASGRIFQGYAKGWYRQAPGKERELVAAIRTGGSTNYADSVKGRFTISRDNAKNTVYLQMNSLKPEDTAVYYCNAVGQLYFYFPRGDYWGQGTQVTVSS,low polyreactivity
9,QVQLVESGGGLVQAGGSLRLSCAASGRIFQGYAMGWYRKAPGKERELVAAIRSGSGSTYYADSVKGRFTISRDNAKNTVYLQMNSLKPEDTAVYYCAADRYYWGQGTQVTVSS,low polyreactivity
10,QVQLVESGGGLVQAGGSLRLSCAASGRIFQGYAMGWYRQAPGKEREFVAVISTSGGRTSYADSVKGRFTISRDNAKNTVYLQMNSLKPEDTAVYYCNALYGRYGWSKNYYWGQGTQVTVSS,high polyreactivity
11,QVQLVESGGGLVQAGGSLRLSCAASGRIFQKYAMGWYRQAPGKERELVAAISSGDSTYADSVKGRFTISRDNAKNTVYLQMNSLKPEDTAVYYCAVDLYDPWWYSYIGEYEYWGQGTQVTVSS,low polyreactivity
12,QVQLVESGGGLVQAGGSLRLSCAASGRIFQKYAMGWYRQAPGKERELVAAISSGDSTYADSVKGRFTISRDNAKNTVYLQMNSLKPEDTAVYYCNREVPESQGFITPDGYCGQGTQVTVSS,low polyreactivity
13,QVQLVESGGGLVQAGGSLRLSCAASGRIFQNNAMGWYRQAPGKERELVAAINIIDGVTYYADSVKGRFTISRDNAKNTVYLQMNSLKPEDTAVYYCNAVRRAHHRKYNYWGQGSQVTVSS,low polyreactivity
14,QVQLVESGGGLVQAGGSLRLSCAASGRIFQPNAMGWYRQAPGKERELVAAISSSGGRTYYADSVKGRFTISRDNAKNTVYLQMNSLKPEDSAVYYCNAGGYRYRSYDYWGQGTQVTVSS,high polyreactivity
15,QVQLVESGGGLVQAGGSLRLSCAASGRIFQPNAMGWYRQAPGKERELVAAISSSGGRTYYADSVKGRFTISRDNAKNTVYLQMYSLKPEDSAVYYCNAGGYRYRSYDYWGQGTQVTVSS,high polyreactivity
16,QVQLVESGGGLVQAGGSLRLSCAASGRIFQPNVMGWYRQAPGKERELVAAIRSGSSTYYADSVKGRFTISRDNAKNTVYLQMNSLKPEDTAVYYCATRRAGRGYDYWGQGTQVTVSS,high polyreactivity
